Laboratory results taken from EP4792830A2.
Where a chain is given by its changes, count along the chain named. Like-named read-outs stand apart in the source and are kept apart here. Each block holds one binder with its values, some of them ahead of it.

Experiments:
[1] = molecular target: endogenous TFPI in human plasma (human), P10646; experiment: cell-based or functional assay
[2] = molecular target: endogenous TFPI in human plasma (human), P10646; experiment: cell-based or functional assay; remark: listed apart in the source

EC50 (dilute prothrombin time, clotting time) [1]: 0.57 nM
TGA Velocity Index at 20 nM [1]: 23.2
B1: TFPI-24 (antibody, human IgG1, lambda)
heavy: EVQLVESGGGSVQPGRSLRLSCAVSGLTIDNYAMQWVRQRPGKGLEWVSGISGNSRSIGYADSVKGRLTISRDNAKNSLYLQIDSLRADDTALYYCAIFLHESDYWGQGTLVTVSSASTKGPSVFPLAPSSKSTSGGTAALGCLVKDYFPEPVTVSWNSGALTSGVHTFPAVLQSSGLYSLSSVVTVPSSSLGTQTYICNVNHKPSNTKVDKKVEPKSCDKTHTCPPCPAPEAAGAPSVFLFPPKPKDTLMISRTPEVTCVVVDVSHEDPEVKFNWYVDGVEVHNAKTKPREEQYNSTYRVVSVLTVLHQDWLNGKEYKCKVSNKALPAPIEKTISKAKGQPREPQVYTLPPSREEMTKNQVSLTCLVKGFYPSDIAVEWESNGQPENNYKTTPPVLDSDGSFFLYSKLTVDKSRWQQGNVFSCSVMHEALHNHYTQKSLSLSPG
light: not shown

Dilute PT EC50 [1]: 1.16 nM
EC50 (dilute prothrombin time, clotting time) [1]: 1.16 nM
TGA Velocity EC50 [1]: 7.72 nM
B2: TFPI-118 (antibody, human IgG1, lambda)
heavy: B1 heavy with S11L, R40A, L68F, I83M, D84N, D89E
light: not shown

Dilute PT EC50 [1]: 1 nM
B3: 2A8-200 (antibody, human IgG1, lambda)
heavy: QVQLVESGGGLVQPGGSLRLSCAASGFTFRSYGMDWVRQAPGKGLEWVSSIRGSRSSTYYADSVKGRFTISRDNSKNTLYLQMNSLRAEDTAVYYCARLYRYWFDYWGQGTLVTVSSASTKGPSVFPLAPSSKSTSGGTAALGCLVKDYFPEPVTVSWNSGALTSGVHTFPAVLQSSGLYSLSSVVTVPSSSLGTQTYICNVNHKPSNTKVDKKVEPKSCDKTHTCPPCPAPEAAGAPSVFLFPPKPKDTLMISRTPEVTCVVVDVSHEDPEVKFNWYVDGVEVHNAKTKPREEQYNSTYRVVSVLTVLHQDWLNGKEYKCKVSNKALPAPIEKTISKAKGQPREPQVYTLPPSREEMTKNQVSLTCLVKGFYPSDIAVEWESNGQPENNYKTTPPVLDSDGSFFLYSKLTVDKSRWQQGNVFSCSVMHEALHNHYTQKSLSLSPG
light: DIELTQPPSVSVAPGQTARISCSGDNLRNYYAHWYQQKPGQAPVVVIFYDVNRPSGIPERFSGSNSGNTATLTISGTQAEDEADYYCQSWWDGVPVFGGGTKLTVLGQPKAAPSVTLFPPSSEELQANKATLVCLISDFYPGAVTVAWKADSSPVKAGVETTTPSKQSNNKYAASSYLSLTPEQWKSHRSYSCQVTHEGSTVEKTVAPTECS

Dilute PT EC50 [1]: 0.47 nM
EC50 (dilute prothrombin time, clotting time) [1]: 0.47 nM
TGA Velocity EC50 [1]: 3.9 nM
TGA Velocity Index at 20 nM [1]: 15.7
B4: hz4D8 (antibody, human IgG1, kappa)
heavy: EVQLVESGGGLVQPGGSLRLSCAASGYTFTDYNLDWVRQAPGKGLEWVADINPINGATLYNQKFKGRFTISRDQAKNSLYLQMNSLRAEDTAVYYCARYYGDYDAMDYWGQGTLVTVSSASTKGPSVFPLAPSSKSTSGGTAALGCLVKDYFPEPVTVSWNSGALTSGVHTFPAVLQSSGLYSLSSVVTVPSSSLGTQTYICNVNHKPSNTKVDKKVEPKSCDKTHTCPPCPAPEAAGAPSVFLFPPKPKDTLMISRTPEVTCVVVDVSHEDPEVKFNWYVDGVEVHNAKTKPREEQYNSTYRVVSVLTVLHQDWLNGKEYKCKVSNKALPAPIEKTISKAKGQPREPQVYTLPPSREEMTKNQVSLTCLVKGFYPSDIAVEWESNGQPENNYKTTPPVLDSDGSFFLYSKLTVDKSRWQQGNVFSCSVMHEALHNHYTQKSLSLSPG
light: DIQMTQSPSSLSASVGDRVTITCKASQDVHTAVAWYQQKPGKAPKLLIYWASTRHTGVPSRFSGSGSGTDYTLTISSLQPEDFATYYCQQHYTTPYTFGQGTKLEIKRTVAAPSVFIFPPSDEQLKSGTASVVCLLNNFYPREAKVQWKVDNALQSGNSQESVTEQDSKDSTYSLSSTLTLSKADYEKHKVYACEVTHQGLSSPVTKSFNRGEC

TGA Velocity Index at 20 nM [2]: 26.3
TGA Velocity Index at 20 nM [1]: 13.5
B5: 4D8.b1 (antibody, mouse IgG1, kappa)
heavy: EVLLQQSGPELVKPGASVKIPCKASGYTFTDYNLDWVKQSHGKSLEWIGDINPINGATLYNQKFKGKATLTVDQSSSTAYMELRSLTSEDTAVYYCSIYYGDYDAMDYWGQGASVTVSSAKTTPPSVYPLAPGSAAQTNSMVTLGCLVKGYFPEPVTVTWNSGSLSSGVHTFPAVLQSDLYTLSSSVTVPSSTWPSETVTCNVAHPASSTKVDKKIVPRDCGCKPCICTVPEVSSVFIFPPKPKDVLTITLTPKVTCVVVDISKDDPEVQFSWFVDDVEVHTAQTQPREEQFNSTFRSVSELPIMHQDWLNGKEFKCRVNSAAFPAPIEKTISKTKGRPKAPQVYTIPPPKEQMAKDKVSLTCMITDFFPEDITVEWQWNGQPAENYKNTQPIMDTDGSYFVYSKLNVQKSNWEAGNTFTCSVLHEGLHNHHTEKSLSHSPGK
light: DIVMTQSHKFMSTSVGDRVSITCKASQDVHTAVAWYQQKPGQSPRLLIYWASTRHTGVPDRFTGCGSGTDYTLTISSVQAEDLALYYCQQHYTTPYTFGGGTKLEMKADAAPTVSIFPPSSEQLTSGGASVVCFLNNFYPKDINVKWKIDGSERQNGVLNSWTDQDSKDSTYSMSSTLTLTKDEYERHNSYTCEATHKTSTSPIVKSFNRNEC
